Test results published in patent US20240084003A1 (SIMCERE ZAIMING PHARMACEUTICAL, published 2024).

T1: human CD22 domain5-7-His (human, UniProt P20273 414-687)
T1 construct: also called hCD22 domain5-7-His; not shown: His tag
T1 sequence: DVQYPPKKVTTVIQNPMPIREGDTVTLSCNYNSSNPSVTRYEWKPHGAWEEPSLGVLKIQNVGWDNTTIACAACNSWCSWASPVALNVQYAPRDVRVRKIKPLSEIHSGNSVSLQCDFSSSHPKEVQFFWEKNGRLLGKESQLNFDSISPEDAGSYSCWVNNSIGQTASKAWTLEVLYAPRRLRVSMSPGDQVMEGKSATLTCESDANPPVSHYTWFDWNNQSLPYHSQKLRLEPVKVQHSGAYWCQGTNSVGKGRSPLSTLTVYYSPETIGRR

T2: human CD22-ECD-His protein (human, UniProt P20273 20-687)
T2 construct: Recombinant, from HEK293E cells; also called hCD22-ECD-His; human CD22-His protein; not shown: His tag
T2 sequence: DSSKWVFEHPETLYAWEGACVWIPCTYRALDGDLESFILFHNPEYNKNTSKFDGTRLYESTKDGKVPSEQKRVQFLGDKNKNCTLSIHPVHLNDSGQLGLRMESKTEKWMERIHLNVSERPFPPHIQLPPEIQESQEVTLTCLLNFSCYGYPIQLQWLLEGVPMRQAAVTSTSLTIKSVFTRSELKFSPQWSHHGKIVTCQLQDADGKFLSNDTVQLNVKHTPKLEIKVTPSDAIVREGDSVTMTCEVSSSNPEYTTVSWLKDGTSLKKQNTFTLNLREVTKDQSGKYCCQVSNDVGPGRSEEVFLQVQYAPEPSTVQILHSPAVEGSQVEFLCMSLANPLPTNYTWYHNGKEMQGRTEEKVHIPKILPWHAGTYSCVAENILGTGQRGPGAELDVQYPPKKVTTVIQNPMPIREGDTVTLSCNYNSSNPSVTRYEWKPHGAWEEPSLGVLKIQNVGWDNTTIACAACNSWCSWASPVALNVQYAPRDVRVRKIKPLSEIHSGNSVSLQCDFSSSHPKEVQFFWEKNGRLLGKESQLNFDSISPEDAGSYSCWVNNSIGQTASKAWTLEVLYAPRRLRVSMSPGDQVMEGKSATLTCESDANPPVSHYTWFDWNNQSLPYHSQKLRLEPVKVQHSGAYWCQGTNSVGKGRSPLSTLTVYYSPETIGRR


Assays:
human CD22 domain5-7-His = biological target: T1, human CD22 domain5-7-His; assay: ELISA, plate coated with human CD22 domain5-7-His
[1] = biological target: T2, human CD22-ECD-His protein; assay: SPR (Biacore), antibody captured on Protein A chip, CD22-ECD-His in solution
Protocol: Sample buffer and running buffer were HBS-EP+(10 mM HEPES, 150 mM NaCl, 3 mM EDTA, 0.05% surfactant P20) (GE Healthcare; BR-1006-69). The flow-through cell was set to 25° C. The sample block was set to 16° C. Both were pretreated with the running buffer. In each cycle, the antibody to be tested was first captured with a Protein A chip, then a single concentration of CD22 antigen protein was injected. The binding and dissociation process of the antibody and the antigen protein was recorded, and finally Glycine pH 1.5 (GE Healthcare; BR-1003-54) was used to complete chip regeneration. Binding was measured by injecting different concentrations of recombinant human CD22-ECD His protein in solution for 240 s with a flow rate of 30 μL/min. The concentration started from 200 nM (see the detailed results for the actual concentration in the test) and was diluted at 1:1, making a total of 5 concentrations. The dissociation phase was monitored for up to 600 s and was triggered by switching from sample solution to running buffer. The surface was regenerated by washing with a 10 mM of glycine solution (pH 1.5) for 30 s at a flow rate of 30 μL/min. Bulk refractive index difference was corrected by subtracting the response obtained from the goat anti-human Fc surface. Blank injection was also subtracted (=double reference). For calculation of apparent KD and other kinetic parameters, Langmuir 1:1 model was used.

Binder | binding result (human CD22 domain5-7-His) | Kd [1] [nM] | koff [1] [s⁻¹] | kon [1] [M⁻¹ s⁻¹]
F2.121.9 (antibody, human IgG1, lambda, V domains shown, Chimeric IgG1 lambda) VH: EVQLVESGGGLVKPGGSLKLSCAASGFTFSDYVMSWIRQTPEKRLEWVATISDAGSYTFYPDNLKGRFTISRDNAKNNLYLQMNHLTSEDTAFYYCAIIYFGNYGGYWGQGTLVTVSV VL: QAVVTQESALTTSPGGTVVLTCRSNTGAVTTSNYANWVQEKPDHLFTGLIGGTSNRAPGVPVRFSGSLIGDKAALTITGAQTEDDAMYFCALWYSTHWVFGGGTKLTVLG | no binding | 80 | 0.000393 | 4910
F2.70.2 (antibody, human IgG1, lambda, V domains shown, Chimeric IgG1 lambda) VH: EVQLVESGGGLVKPGGSLKLSCAASGFTFSDYGMNWFRQAPEKGLEWVAYISRGSHTIYYADTVKGRFTISRDNAKNTLFLQMTSLRSNDTAMYYCVRMAGYYAMDYWGQGTSVTVSS VL: QLVLTQSSSASFSLGASAKLTCTLSSQHSSYIIEWYQQQPLKPPKYVMELKKDGSHSTGDGIPDRFSGSSSGADRYLSISNIQPEDEAIYICGVGDTIKEQFVYVFGGGTKVTVLG | no binding | 10.7 | 0.000744 | 69500
F2.127.11 (antibody, human IgG1, lambda, V domains shown, Chimeric IgG1 lambda) VH: QVTLKESGPGILQPSQTLSLTCSFSGFSLSTFGMGVGWIRQPSGKGLEWLAHIWWDDDKHYNPALKSRLTISKDTSRNQVFLKIANVDTADGATYFCARDNWVSSLDYWGQGTSVIVSS VL: QPVITQSSSASFSLGASAELTCTLSSQHSTYTIEWYQQQPLKPPKYVMGLKKDGSHSTGDGIPDRFSGSSSGADRYLSISNIQPEDEAIYICGVSDTIKEQFVYVFGGGTKVTVLG | no binding | 2.93 | 0.00066 | 226000
F2.104.10 (antibody, human IgG1, lambda, V domains shown, Chimeric IgG1 lambda) VH: EVQLVESGGGFVKPGGSLKLSCAASGFTFSDYGMNWFRQAPEKGLEWVAYISRGSHTIYYADTVKGRFTISRDNAENTLFLQMTSLRSNDTAMYYCVRMAGYYAMDYWGQGTSLTVSS VL: QLVLTQSSSASFSLGASAKLTCTLSSQHSSYIIEWYQQQPLKPPKYVMEVKKDGSHSTGDGIPDRFSGSSSGADRYLSISNIQSEDEAIYICGVGDTIKEQFVYVFGGGTKVTVLG | no binding | 8.54 | 0.00061 | 71400
F2.55.1 (antibody, human IgG1, lambda, V domains shown, Chimeric IgG1 lambda) VH: QVTLKESGPGILQPSQTLSLTCSFSGFSLSTFPLGVGWIRQPSGKGLEWLAHVWWNDDDYYNPALKSRLTISKDTSNTRVFLSVASVDTAETATYYCARLNWDRWYFDVWGTGTTVTVSS VL: QLVLTQSSSASFSLGASAKLTCTLSSQHSAYTVEWYQQQPLKPPKYVMELKKDGSHSTGDGIPDRFSGSSSGADRYLSISNIQPEDEAIYICGVGDTVKEQFVFGGGTKVTVLG | no binding | 0.586 | 7.42e-05 | 127000
F1.231.15 (antibody, IgG1, V domains shown, Chimeric IgG1 kappa) VH: QVQLQQPGAELVKPGASVKLSCKTSGYTFTIYWMQWVKQRPGRGLEWIGRIDPHSGDTHYNENFTTKVTLTVDETSNTAYMHLSGLTSEDSAVYYCARRDYSYYVLDYWGQGTSVTVSS VL: DVVLTQTPLSLPVSLGDQASISCRSSQSLVHINGDTYLHWYLQKPGQSPKLLIYTVFNRFSGVPDRFSGSGSGTDFTLKISRVEAEDLGAYFCSQSTHVPYTFGGGTKLEIKR | no binding | 44.8 | – | –

Further binders by falling Kd [1], results first:

binding result (human CD22 domain5-7-His) | Kd [1] [nM] | koff [1] [s⁻¹] | kon [1] [M⁻¹ s⁻¹] | Binder
no binding | 4970 | 0.101 | 20400 | F2.343.16 (antibody, human IgG1, lambda, V domains shown, Chimeric IgG1 lambda) VH: QVQLKQSGPGLVQPSQSLSITCTVSGFSLTGYGVQWVRQSPGKGLEWLGVIWGGGGTDYNAAFISRLNIIKDNSKSQVFFKMNSLQADDTAIYYCARYSKYGHFDVWGTGTAVTVSS VL: QAVVTQESALTTSPGETVTLTCRSSTGAVTTSNYANWVQEKPDHLFTGLIGGTYNRVPGVPARFSGSLIGDKAALTITGAQTEDEAIYFCALWYSNHFWVFGGGTKLTVLG
no binding | 29.3 | 0.000399 | 13600 | F1.62.10 (antibody, human IgG1, kappa, V domains shown, Chimeric IgG1 kappa) VH: QVQLQQSGPELVKPGASVKISCKASGYEFSSIWMNWVKQRPGEGLEWIGRIFPGDGEINYNEKFKGKATLTADRSSTTAYMQLSSLTSEDSAVYFCAGWRIYYGTYGAMDYWGQGTSVTVSS VL: DIQMTQITSSLSASLGDRVTISCRASQDIGNYLNWYQQKPDGTVKLLIYYTSRLHSGVPSRFSGSGSRTDYSLTISNLQQEDIATYFCQQGNTLPWTFGGGTKLEIKR
no binding | 10 | 0.000663 | 66100 | F2.42.9 (antibody, human IgG1, lambda, V domains shown, Chimeric IgG1 lambda) VH: QVTLKESGPGILQPSQTLSLTCSFSGFSLSTFDRGVGWIRQPSGKGLEWLAHIWWNDKKFYNPVLKSRLTISKDTSKNQVFLTIANVDSADTATYSCARIVWDKYYFDYWGQGIPLTVSS VL: QLVLTQSSSASFSLGASAKLTCTLSSQHSAYTIEWYQQQPLKPPKFVMDLKKDGSHSTGDGIPARFSGSSSGADRYLTISNIQPEDEAIYICGVGDTIKEQYVFGGGTKVTVLG
no binding | 6.73 | 0.000423 | 62900 | F1.280.1 (antibody, human IgG1, kappa, V domains shown, Chimeric IgG1 kappa) VH: QIQLVQSGPELKKPGETVKISCKASGYTFTTYGMSWVKQTPGKGLTWMGWINTDSGVPTYADDFKRRFAFSLEASATTAYLQINNLKNEDTATYFCARGGPDYWGQGTTLTVSS VL: DILLTQSPATLSVTPGETVSLSCRASQSIYKNLHWYHQKSHRSPRLLIKYASDSISGIPSRFTGSGSGTNFTLSINSVKPEDEGIYYCLQGYIVPLTFGAGTKLELKR
no binding | 5.88 | 0.00118 | 201000 | F1.161.7 (antibody, human IgG1, kappa, V domains shown, Chimeric IgG1 kappa) VH: QVQLQQPGAELVKPGASVKMSCKASGYTFTSYWISWVKQRPGQGLEWIGDIYPGTGSSNYNEKFKSKATLTVDTSSSTAYMQLSSLTSEDSAVYYCARLKFEGIGYWGQGTTLTVSS VL: QIVLTQSPAIMSASLGEEITLTCSASSSVSYMHWFQQKSGTSPKLLIYSISNLASGVPSRFSGSGSGTFYSLTISSVEAEDAADYYCHQWSSYPWTFGGGTKLEIKR
no binding | 1.7 | 0.000203 | 120000 | F1.7.6 (antibody, human IgG1, kappa, V domains shown, Chimeric IgG1 kappa) VH: EIQLQQSGPELVKPGTSVKVSCKASGYDFTRYNMYWVKQSHGKSLEWIGYIDPYNGDTRYNQKFKGKATLTVDKSSSTAYMHLNSLTSEDSAVYYCEAIYYDMEGYALDYWGQGTSVTVSS VL: DIVMSQSPSSLAVSVGEKVTMSCKSSQSLLYSNNQKNYLAWYQQKPGQSPKKLIYWASTRESGVPDRLTGSGSGTDFTLTISSVTAEDLAVYYCQQFYSYPWTFGGGTKLEIKR
